According to US20250109212A1:
Read-outs that look alike come from different tables or passages of the source.

Key:
[1] = target: full length human CD47 (NCBI #NP_942088.1) on 293F-CD47 cells (human) (UniProt Q08722); assay: cell-based blocking FACS on 293F-CD47 cells, blocked ligand biotin-labeled human CD172a-Fc, MFI
[2] = target: full length human CD47 (NCBI #NP_942088.1) on 293F-CD47 cells (human) (UniProt Q08722); assay: as above; remark: listed apart in the source
[3] = target: full length human CD47 (NCBI #NP_942088.1) on 293F-CD47 cells (human) (UniProt Q08722); assay: FACS on 293F-CD47 cells, detection with goat anti-human IgG (Fc)-PE, MFI

IC50 [1]: 1.9 nM
IC50 [2]: 3.25 nM
EC50 [3]: 1.72 nM
Substance: SIRPα-isoform2-Fc (Fc fusion)
